{
  "source": "patent US20170008933A1",
  "about": "(GlaxoSmithKline, published 2017)",
  "binders": {"B1": {"name": "v3 fHbp L149R mutant (L126R of SEQ ID NO: 17) (other)", "chain": "VAADIGTGLADALTAPLDHKDKGLKSLTLEDSIPQNGTLTLSAQGAEKTFKAGDKDNSLNTGKLKNDKISRFDFVQKIEVDGQTITLASGEFQIYKQNHSAVVALQIEKINNPDKTDSLINQRSFRVSGLGGEHTAFNQLPGGKAEYHGKAFSSDDPNGRLHYSIDFTKKQGYGRIEHLKTLEQNVELAAAELKADEKSHAVILGDTRYGSEEKGTYHLALFGDRAQEIAGSATVKIGEKVHEIGIAGKQ", "notes": "also called v3 equivalent of mutant #4"}, "B2": {"name": "v3 fHbp S58V mutant (S32V of SEQ ID NO: 17) (other)", "chain": "B1 chain with S32V, R126L", "notes": "also called v3 equivalent of mutant #2"}, "B3": {"name": "wild-type v2 fHbp (strain 2996) (other)", "chain": "VAADIGAGLADALTAPLDHKDKSLQSLTLDQSVRKNEKLKLAAQGAEKTYGNGDSLNTGKLKNDKVSRFDFIRQIEVDGQLITLESGEFQIYKQDHSAVVALQIEKINNPDKIDSLINQRSFLVSGLGGEHTAFNQLPDGKAEYHGKAFSSDDAGGKLTYTIDFAAKQGHGKIEHLKTPEQNVELAAAELKADEKSHAVILGDTRYGSEEKGTYHLALFGDRAQEIAGSATVKIGEKVHEIGIAGKQ", "notes": "Recombinant purified protein; The exact construct used in SPR is not spelled out; also called v2 w.t"}, "B4": {"name": "v2 fHbp combined mutant #2 + #12 (other)", "chain": "B3 chain with S32V, L123R, V124I, S125G, G126D, L127I, G128A", "notes": "also called mutant #23; S32V + L123-G128 RIGDIA"}, "B5": {"name": "v2 fHbp mutant #2 (S58V) (other)", "chain": "B3 chain with S32V", "notes": "also called S32V"}, "B6": {"name": "v2 fHbp mutant #4 (L149R) (other)", "chain": "B3 chain with L123R", "notes": "also called L123R"}, "B7": {"name": "v2 fHbp mutant #3 + 'E313A' (other)", "chain": "B3 chain with S32V, L123R, E240A", "notes": "also called S32V + L123R + E240A"}},
  "key": {"human factor H [1]": {"molecular_target": "T1, human factor H (human, UniProt P08603 19-1231)", "T1 construct": "Immobilised on the chip in the SPR experiments; also called fH", "T1 sequence (P08603 19-1231 limits assumed)": "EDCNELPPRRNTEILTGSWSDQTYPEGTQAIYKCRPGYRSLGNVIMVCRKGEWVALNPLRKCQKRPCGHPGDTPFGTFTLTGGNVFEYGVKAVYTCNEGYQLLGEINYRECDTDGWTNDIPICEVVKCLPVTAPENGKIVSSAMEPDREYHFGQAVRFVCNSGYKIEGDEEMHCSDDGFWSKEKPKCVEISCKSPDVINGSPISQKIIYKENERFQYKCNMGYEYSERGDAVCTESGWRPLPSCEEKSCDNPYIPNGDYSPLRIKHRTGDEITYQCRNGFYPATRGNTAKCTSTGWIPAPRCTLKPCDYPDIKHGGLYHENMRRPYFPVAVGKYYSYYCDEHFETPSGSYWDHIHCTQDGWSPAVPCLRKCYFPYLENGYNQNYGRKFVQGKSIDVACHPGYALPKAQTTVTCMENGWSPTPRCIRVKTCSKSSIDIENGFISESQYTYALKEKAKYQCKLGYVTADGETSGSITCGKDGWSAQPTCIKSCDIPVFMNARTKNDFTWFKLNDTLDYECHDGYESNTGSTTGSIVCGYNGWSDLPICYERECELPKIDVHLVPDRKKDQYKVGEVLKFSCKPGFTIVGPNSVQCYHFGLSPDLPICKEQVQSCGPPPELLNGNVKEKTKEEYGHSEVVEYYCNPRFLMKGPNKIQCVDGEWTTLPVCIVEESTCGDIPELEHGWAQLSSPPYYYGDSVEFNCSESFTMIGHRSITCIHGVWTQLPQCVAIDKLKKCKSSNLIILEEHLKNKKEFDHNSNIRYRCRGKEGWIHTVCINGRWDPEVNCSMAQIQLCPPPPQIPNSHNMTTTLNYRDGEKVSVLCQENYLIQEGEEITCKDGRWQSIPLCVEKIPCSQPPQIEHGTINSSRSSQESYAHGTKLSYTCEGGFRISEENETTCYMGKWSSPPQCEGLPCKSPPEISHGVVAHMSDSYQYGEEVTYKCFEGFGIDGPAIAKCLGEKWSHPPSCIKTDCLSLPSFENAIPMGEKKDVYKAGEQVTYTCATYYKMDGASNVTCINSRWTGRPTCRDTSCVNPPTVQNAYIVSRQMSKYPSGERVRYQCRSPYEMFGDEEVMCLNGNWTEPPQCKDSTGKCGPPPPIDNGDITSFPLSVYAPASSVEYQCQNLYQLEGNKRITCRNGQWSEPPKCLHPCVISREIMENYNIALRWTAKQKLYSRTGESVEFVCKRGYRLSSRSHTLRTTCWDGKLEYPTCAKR", "experiment": "SPR"}, "human factor H [2]": {"molecular_target": "T1, human factor H", "experiment": "SPR against immobilised fH"}},
  "note": "Substitutions are numbered along the chain they refer to. Numbers in names are those of the source.",
  "data": [
    {"binder": "B1", "values": [
      {"measurement": "binding result", "setting": "human factor H [1]", "value": "binds"}
    ]},
    {"binder": "B2", "values": [
      {"measurement": "fold reduction of the SPR peak value against wild-type v3", "setting": "human factor H [1]", "value": "~2", "unit": "fold"}
    ]},
    {"binder": "B3", "values": [
      {"measurement": "binding result", "setting": "human factor H [2]", "value": "binds"}
    ]},
    {"binder": "B4", "values": [
      {"measurement": "fold reduction of the SPR peak value", "setting": "human factor H [1]", "value": "~8", "unit": "fold"}
    ]},
    {"binder": "B5", "values": [
      {"measurement": "binding result", "setting": "human factor H [2]", "value": "binds"}
    ]},
    {"binder": "B6", "values": [
      {"measurement": "binding result", "setting": "human factor H [2]", "value": "binds"}
    ]},
    {"binder": "B7", "values": [
      {"measurement": "binding result", "setting": "human factor H [1]", "value": "no binding"}
    ]}
  ]
}
